The test has as its target Aβ1-40 peptide (monomeric start material of the nucleation assay). The test can be described thus: cell-based or functional assay.

On to “PPI-969: TFA • N-ethyl-(Gaffvl)-NH2 (peptide)”, for which the Nucleation assay Δ lag at 1.25 µM compound (ratio of lag time to control) came out at 3, the Nucleation assay Δ lag at 2.5 µM compound (ratio of lag time to control) is more than 5 and the Nucleation assay Δ lag at 5 µM compound (ratio of lag time to control) was more than 5.
Take “PPI-1013: TFA • H-(Glvffl)-NH2 (peptide)”: the Nucleation assay Δ lag at 0.6 µM compound (row marked #: measured at 2.5, 1.25 and 0.6 µM) (ratio of lag time to control) was determined as 2; the Nucleation assay Δ lag at 1.25 µM compound (row marked #: measured at 2.5, 1.25 and 0.6 µM) (ratio of lag time to control) is more than 3; the Nucleation assay Δ lag at 2.5 µM compound (row marked #: measured at 2.5, 1.25 and 0.6 µM) (ratio of lag time to control) came out at 2.
